Columns and labels:
Assay in all cases: cell-based or functional assay
[1] = biological target: Env of HIV isolate 426c (clade C) (HIV)
[2] = biological target: HIV Env of isolate C2101.c1 (HIV)
[3] = biological target: HIV Env of isolate CNE12 (HIV)
[4] = biological target: Env of HIV isolate T255-34 (clade AG) (HIV)
[5] = biological target: HIV Env of isolate 235-47 (HIV)
[6] = biological target: HIV Env of isolate CNE7 (HIV)
[7] = biological target: Env of HIV isolate 0921.v2.c14 (clade C) (HIV)
[8] = biological target: HIV Env of isolate CH070.1 (HIV)
[9] = biological target: Env of HIV isolate CNE59 (clade AE) (HIV)
[10] = biological target: HIV Env of isolate CNE8 (HIV)
[11] = biological target: Env of HIV isolate CAP210.E8 (clade C) (HIV)
[12] = biological target: HIV Env of isolate MS208.A1 (HIV)
[13] = biological target: HIV Env of isolate 6540.v4.c1 (HIV)
[14] = biological target: HIV Env of isolate CNE15 (HIV)
[15] = biological target: Env of HIV isolate CNE15 (clade BC) (HIV)
[16] = biological target: HIV Env of isolate TH976.17 (HIV)
[17] = biological target: Env of HIV isolate MB201.A1 (clade A) (HIV)
[18] = biological target: HIV Env of isolate C1080.c3 (HIV)
[19] = biological target: HIV Env of isolate BI369.9A (HIV)
[20] = biological target: HIV Env of isolate 191821.E6.1 (HIV)
[21] = biological target: HIV Env of isolate BJOX025000.01.1 (HIV)
[22] = biological target: Env of HIV isolate CNE20 (clade BC) (HIV)
[23] = biological target: Env of HIV isolate HO86.8 (clade B) (HIV)
[24] = biological target: Env of HIV isolate 6545.v4.c1 (clade AC) (HIV)
[25] = biological target: Env of HIV isolate TH976.17 (clade AE) (HIV)
[26] = biological target: HIV Env of isolate MI369.A5 (HIV)
[27] = biological target: HIV Env of isolate SO18.18 (HIV)
[28] = biological target: HIV Env of isolate CAP45.G3 (HIV)
[29] = biological target: HIV Env of isolate MW965.26 (HIV)
[30] = biological target: Env of HIV isolate DJ263.8 (clade AG) (HIV)
[31] = biological target: Env of HIV isolate 3415.v1.c1 (clade A) (HIV)
[32] = biological target: HIV Env of isolate MB539.2B7 (HIV)
[33] = biological target: HIV Env of isolate 620345.c1 (HIV)
[34] = biological target: Env of HIV isolate T257-31 (clade AG) (HIV)
[35] = biological target: HIV Env of isolate Ce1176.A3 (HIV)
[36] = biological target: Env of HIV isolate MB539.2B7 (clade A) (HIV)
[37] = biological target: Env of HIV isolate TRJO.58 (clade B) (HIV)
[38] = biological target: Envelope protein of SVA.MLV (clade NA)
[39] = biological target: HIV Env of isolate SF162.LS (HIV)
[40] = biological target: HIV Env of isolate ZM215.8 (HIV)
[41] = biological target: HIV Env of isolate CAP256.206.C9 (HIV)
[42] = biological target: Env of HIV isolate C2101.c1 (clade AE) (HIV)
[43] = biological target: Env of HIV isolate 96ZM651.02 (clade C) (HIV)
[44] = biological target: HIV Env of isolate 96ZM651.02 (HIV)
[45] = biological target: HIV Env of isolate BX08.16 (HIV)
[46] = biological target: Env of HIV isolate CAP244.D3 (clade C) (HIV)
[47] = biological target: Env of HIV isolate 235-47 (clade AG) (HIV)
[48] = biological target: HIV Env of isolate X2088.c9 (HIV)
[49] = biological target: Envelope of SVA.MLV
[50] = biological target: Env of HIV isolate A03349M1.vrc4a (clade D) (HIV)
[51] = biological target: HIV Env of isolate CNE31 (HIV)
[52] = biological target: HIV Env of isolate CNE4 (HIV)
[53] = biological target: HIV Env of isolate CNE5 (HIV)
[54] = biological target: Env of HIV isolate CNE31 (clade C) (HIV)

PGT121 (antibody)
IC50, pseudovirus neutralization [1]: > 50 µg/mL
IC80 [2]: > 50 µg/mL
IC80 [3]: 0.0347 µg/mL
IC50, pseudovirus neutralization [4]: 2.04 µg/mL
IC80 [5]: 0.614 µg/mL
IC80, pseudovirus neutralization [6]: 0.121 µg/mL
IC50, pseudovirus neutralization [7]: > 50 µg/mL
IC80, pseudovirus neutralization [8]: 0.0423 µg/mL
IC50, pseudovirus neutralization [9]: > 50 µg/mL
IC80 [10]: > 50 µg/mL
IC50, pseudovirus neutralization [11]: 4.28 µg/mL
IC80 [12]: > 50 µg/mL
IC80 [13]: > 50 µg/mL
IC80, pseudovirus neutralization [14]: > 50 µg/mL
IC50, pseudovirus neutralization [15]: 6.64 µg/mL
IC80 [16]: > 50 µg/mL
IC50, pseudovirus neutralization [17]: 0.00933 µg/mL
IC80 [18]: > 50 µg/mL
IC80 [19]: 0.085 µg/mL
IC80, pseudovirus neutralization [20]: > 50 µg/mL
IC80 [21]: > 50 µg/mL
IC50, pseudovirus neutralization [22]: 0.005 µg/mL
IC50, pseudovirus neutralization [23]: > 50 µg/mL
IC50, pseudovirus neutralization [24]: > 50 µg/mL
IC50, pseudovirus neutralization [25]: > 50 µg/mL
IC80 [26]: 0.128 µg/mL
IC80, pseudovirus neutralization [27]: 0.0167 µg/mL
IC80, pseudovirus neutralization [28]: > 50 µg/mL
IC80, pseudovirus neutralization [29]: 0.093 µg/mL
IC50, pseudovirus neutralization [30]: 0.0577 µg/mL
IC50, pseudovirus neutralization [31]: > 50 µg/mL
IC80 [32]: > 50 µg/mL
IC80 [33]: > 50 µg/mL
IC50, pseudovirus neutralization [34]: > 50 µg/mL
IC80, pseudovirus neutralization [35]: 0.066 µg/mL
IC50, pseudovirus neutralization [36]: > 50 µg/mL
IC50, pseudovirus neutralization [37]: 1.63 µg/mL
IC50, pseudovirus neutralization [38]: > 50 µg/mL
IC80 [39]: 0.021 µg/mL
IC80, pseudovirus neutralization [40]: 0.084 µg/mL
IC80, pseudovirus neutralization [41]: 0.046 µg/mL
IC50, pseudovirus neutralization [42]: > 50 µg/mL
IC50, pseudovirus neutralization [43]: 0.0213 µg/mL
IC80, pseudovirus neutralization [44]: 0.0613 µg/mL
IC80 [45]: 0.021 µg/mL
IC50, pseudovirus neutralization [46]: > 50 µg/mL
IC50, pseudovirus neutralization [47]: 0.132 µg/mL
IC80, pseudovirus neutralization [48]: 0.019 µg/mL
IC80, pseudovirus neutralization [49]: > 50 µg/mL
IC50, pseudovirus neutralization [50]: 0.0747 µg/mL
IC80, pseudovirus neutralization [51]: 2.08 µg/mL
IC80 [52]: 25.3 µg/mL
IC80 [53]: > 50 µg/mL
IC50, pseudovirus neutralization [54]: 0.654 µg/mL

From US20210292396A1
